Data from IntAct's records for PubMed 29039417.

B1: BBSome complex member BBS1 (Homo sapiens), Q8NFJ9 (parent)
chain: MAAASSSDSDACGAESNEANSKWLDAHYDPMANIHTFSACLALADLHGDGEYKLVVGDLGPGGQQPRLKVLKGPLVMTESPLPALPAAAATFLMEQHEPRTPALALASGPCVYVYKNLRPYFKFSLPQLPPNPLEQDLWNQAKEDRIDPLTLKEMLESIRETAEEPLSIQSLRFLQLELSEMEAFVNQHKSNSIKRQTVITTMTTLKKNLADEDAVSCLVLGTENKELLVLDPEAFTILAKMSLPSVPVFLEVSGQFDVEFRLAAACRNGNIYILRRDSKHPKYCIELSAQPVGLIRVHKVLVVGSTQDSLHGFTHKGKKLWTVQMPAAILTMNLLEQHSRGLQAVMAGLANGEVRIYRDKALLNVIHTPDAVTSLCFGRYGREDNTLIMTTRGGGLIIKILKRTAVFVEGGSEVGPPPAQAMKLNVPRKTRLYVDQTLREREAGTAMHRAFQTDLYLLRLRAARAYLQALESSLSPLSTTAREPLKLHAVVQGLGPTFKLTLHLQNTSTTRPVLGLLVCFLYNEALYSLPRAFFKVPLLVPGLNYPLETFVESLSNKGISDIIKVLVLREGQSAPLLSAHVNMPGSEGLAAA
partner: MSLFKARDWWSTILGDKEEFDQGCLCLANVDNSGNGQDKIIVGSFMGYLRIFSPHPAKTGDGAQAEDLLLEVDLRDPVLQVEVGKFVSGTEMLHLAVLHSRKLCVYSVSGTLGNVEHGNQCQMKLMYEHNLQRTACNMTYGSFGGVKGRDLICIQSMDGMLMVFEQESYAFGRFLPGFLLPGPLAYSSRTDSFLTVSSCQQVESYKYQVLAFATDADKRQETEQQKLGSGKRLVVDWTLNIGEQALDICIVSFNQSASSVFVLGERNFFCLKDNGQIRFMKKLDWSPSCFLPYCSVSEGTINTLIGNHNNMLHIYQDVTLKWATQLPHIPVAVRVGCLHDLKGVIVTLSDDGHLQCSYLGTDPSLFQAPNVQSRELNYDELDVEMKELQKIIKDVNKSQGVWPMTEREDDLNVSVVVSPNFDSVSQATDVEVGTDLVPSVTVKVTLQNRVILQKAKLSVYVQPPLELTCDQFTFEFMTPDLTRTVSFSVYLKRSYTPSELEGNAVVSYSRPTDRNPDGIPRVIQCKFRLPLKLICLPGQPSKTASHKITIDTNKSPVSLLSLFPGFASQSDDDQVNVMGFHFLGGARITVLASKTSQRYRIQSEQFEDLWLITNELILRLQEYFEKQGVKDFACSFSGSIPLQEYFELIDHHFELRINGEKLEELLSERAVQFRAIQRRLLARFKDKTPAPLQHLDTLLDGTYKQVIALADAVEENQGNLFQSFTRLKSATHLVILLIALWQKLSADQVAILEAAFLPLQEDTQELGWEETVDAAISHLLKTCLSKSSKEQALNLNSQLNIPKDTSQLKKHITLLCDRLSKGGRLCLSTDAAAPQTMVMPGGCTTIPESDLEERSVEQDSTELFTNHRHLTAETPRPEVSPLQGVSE

Variants of: B1
Conditions: with pthb1_human BBS9, Q3SYG4

Variant	effect of a mutation on the interaction
MAAASSSDSDACGAESNEANSKWLDAHYDPMANIHTFSACLALADLHGDGEYKLVVGDLGPGGQQPRLKVLKGPLVMTESPLPALPAAAATFLMEQHEPRTPALALASGPCVYVYKNLRPYFKFSLPQLPPNPLEQDLWNQAKEDRIDPLTLKEMLESIRETAEEPLSIQSLRFLQLELSEMEAFVNQHKSNSIKRQTVITTMTTLKKNLADEDAVSCLVLGTENKELLVLDPEAFTILAKMSLPSVPVFLEVSGQFDVEFRLAAACRNGNIYILRRDSKHPKYCIELSAQPVGLIRVHKVLVVGSTQDSLHGFTHKGKKLWTVQMPAAILTMNLLEQHSRGLQAVMAGLANGEVRIYRDKALLNVIHTPDAVTSLCFGRYGREDNTLIMTTRGGGLIIKILKRTAVFVEGGSEVGPPPAQAMKLNVPRKTRLYVDQTLREREAGTAMHRAFQTDLYLLRLRAARAYLQALESSLSPLSTTAREPLKLHAVVQGLGPTFKLTLHLQNTSTTRPVLGLLVCFLYNEALYSLPRAFFKVPLLVPGLNYPLETFVESLSNKGIEDIIKVLVLREGQSAPLLSAHVNMPGSEGLAAA [S561E]	with no effect
MAAASSSDSDACGAESNEANSKWLDAHYDPMANIHTFSACLALADLHGDGEYKLVVGDLGPGGQQPRLKVLKGPLVMTESPLPALPAAAATFLMEQHEPRTPALALASGPCVYVYKNLRPYFKFSLPQLPPNPLEQDLWNQAKEDRIDPLTLKEMLESIRETAEEPLSIQSLRFLQLELSEMEAFVNQHKSNSIKRQTVITTMTTLKKNLADEDAVSCLVLGTENKELLVLDPEAFTILAKMSLPSVPVFLEVSGQFDVEFRLAAACRNGNIYILRRDSKHPKYCIELSAQPVGLIRVHKVLVVGSTQDSLHGFTHKGKKLWTVQMPAAILTMNLLEQHSRGLQAVMAGLANGEVRIYRDKALLNVIHTPDAVTSLCFGRYGREDNTLIMTTRGGGLIIKILKRTAVFVEGGSEVGPPPAQAMKLNVPRKTRLYVDQTLREREAGTAMHRAFQTDLYLLRLRAARAYLQALESSLSPLSTTAREPLKLHAVVQGLGPTFKLTLHLQNTSTTRPVLGLLVCFLYNEALYSLPRAFFKVPLLVPGLNYPLETFVESLSNKGISEIIKVLVLREGQSAPLLSAHVNMPGSEGLAAA [D562E]	with no effect

Further lines, results first:

effect of a mutation on the interaction	Variant
with no effect	MAAASSSDSDACGAESNEANSKWLDAHYDPMANIHTFSACLALADLHGDGEYKLVVGDLGPGGQQPRLKVLKGPLVMTESPLPALPAAAATFLMEQHEPRTPALALASGPCVYVYKNLRPYFKFSLPQLPPNPLEQDLWNQAKEDRIDPLTLKEMLESIRETAEEPLSIQSLRFLQLELSEMEAFVNQHKSNSIKRQTVITTMTTLKKNLADEDAVSCLVLGTENKELLVLDPEAFTILAKMSLPSVPVFLEVSGQFDVEFRLAAACRNGNIYILRRDSKHPKYCIELSAQPVGLIRVHKVLVVGSTQDSLHGFTHKGKKLWTVQMPAAILTMNLLEQHSRGLQAVMAGLANGEVRIYRDKALLNVIHTPDAVTSLCFGRYGREDNTLIMTTRGGGLIIKILKRTAVFVEGGSEVGPPPAQAMKLNVPRKTRLYVDQTLREREAGTAMHRAFQTDLYLLRLRAARAYLQALESSLSPLSTTAREPLKLHAVVQGLGPTFKLTLHLQNTSTTRPVLGLLVCFLYNEALYSLPRAFFKVPLLVPGLNYPLETFVESLSNKGIADIIKVLVLREGQSAPLLSAHVNMPGSEGLAAA [S561A]
with no effect	MAAASSSDSDACGAESNEANSKWLDAHYDPMANIHTFSACLALADLHGDGEYKLVVGDLGPGGQQPRLKVLKGPLVMTESPLPALPAAAATFLMEQHEPRTPALALASGPCVYVYKNLRPYFKFSLPQLPPNPLEQDLWNQAKEDRIDPLTLKEMLESIRETAEEPLSIQSLRFLQLELSEMEAFVNQHKSNSIKRQTVITTMTTLKKNLADEDAVSCLVLGTENKELLVLDPEAFTILAKMSLPSVPVFLEVSGQFDVEFRLAAACRNGNIYILRRDSKHPKYCIELSAQPVGLIRVHKVLVVGSTQDSLHGFTHKGKKLWTVQMPAAILTMNLLEQHSRGLQAVMAGLANGEVRIYRDKALLNVIHTPDAVTSLCFGRYGREDNTLIMTTRGGGLIIKILKRTAVFVEGGSEVGPPPAQAMKLNVPRKTRLYVDQTLREREAGTAMHRAFQTDLYLLRLRAARAYLQALESSLSPLSTTAREPLKLHAVVQGLGPTFKLTLHLQNTSTTRPVLGLLVCFLYNEALYSLPRAFFKVPLLVPGLNYPLETFVESLSNKGIKDIIKVLVLREGQSAPLLSAHVNMPGSEGLAAA [S561K]
with no effect	MAAASSSDSDACGAESNEANSKWLDAHYDPMANIHTFSACLALADLHGDGEYKLVVGDLGPGGQQPRLKVLKGPLVMTESPLPALPAAAATFLMEQHEPRTPALALASGPCVYVYKNLRPYFKFSLPQLPPNPLEQDLWNQAKEDRIDPLTLKEMLESIRETAEEPLSIQSLRFLQLELSEMEAFVNQHKSNSIKRQTVITTMTTLKKNLADEDAVSCLVLGTENKELLVLDPEAFTILAKMSLPSVPVFLEVSGQFDVEFRLAAACRNGNIYILRRDSKHPKYCIELSAQPVGLIRVHKVLVVGSTQDSLHGFTHKGKKLWTVQMPAAILTMNLLEQHSRGLQAVMAGLANGEVRIYRDKALLNVIHTPDAVTSLCFGRYGREDNTLIMTTRGGGLIIKILKRTAVFVEGGSEVGPPPAQAMKLNVPRKTRLYVDQTLREREAGTAMHRAFQTDLYLLRLRAARAYLQALESSLSPLSTTAREPLKLHAVVQGLGPTFKLTLHLQNTSTTRPVLGLLVCFLYNEALYSLPRAFFKVPLLVPGLNYPLETFVESLSNKGISKIIKVLVLREGQSAPLLSAHVNMPGSEGLAAA [D562K]
